The source of these data is paper PMC1885668.

For one data set, the target named is T1, TREX2DD (human, UniProt Q9BQ50 1-236, E29A;K59A;D94A;R107A;E191A).
T1 sequence: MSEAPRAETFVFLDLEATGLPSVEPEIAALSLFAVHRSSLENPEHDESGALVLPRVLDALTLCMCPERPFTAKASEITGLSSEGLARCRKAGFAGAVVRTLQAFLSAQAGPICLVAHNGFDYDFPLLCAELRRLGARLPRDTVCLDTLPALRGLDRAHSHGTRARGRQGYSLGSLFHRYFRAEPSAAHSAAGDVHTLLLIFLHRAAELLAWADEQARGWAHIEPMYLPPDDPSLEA
Put plainly: SPR. (Surface plasmon resonance follows binding to a sensor surface in real time, without labels.)

A further data set has as its target T2, TREX2BD (human, UniProt Q9BQ50 1-236, R163A;R165A;R167A).
T2 sequence: T1 sequence with A29E, A59K, A94D, A107R, R163A, R165A, R167A, A191E
Put plainly: SPR.

Where a chain is given by its changes, count along the chain named.

As for GTATGAGCTGCAGTTCCTCAGCAT (ssDNA) [Biotin-mTX1-322 (24-mer)], the binding result with TREX2DD and with TREX2BD was “no binding” in each case.
